Three molecules from US20220251221A1 (AGENCY FOR SCIENCE TECHNOLOGY AND RESEARCH, published 2022) can be followed below.

One test addresses T1, recombinant γc-Fc (Homo sapiens (Human), UniProt P31785 23-262).
T1 construct: also called CD132-Fc; not shown: Fc part of the fusion not described
T1 sequence: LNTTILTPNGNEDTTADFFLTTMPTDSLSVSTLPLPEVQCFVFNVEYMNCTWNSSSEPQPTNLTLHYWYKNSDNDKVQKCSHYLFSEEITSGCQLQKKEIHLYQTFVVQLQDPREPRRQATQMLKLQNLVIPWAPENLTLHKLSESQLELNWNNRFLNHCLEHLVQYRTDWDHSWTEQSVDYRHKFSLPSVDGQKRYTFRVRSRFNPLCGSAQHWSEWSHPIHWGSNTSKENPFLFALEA
Nature of the test: ELISA on coated γc-Fc ('Binding to IL-2RG (Fc)'), biotinylated antibody, streptavidin-HRP, the axis is [Ab]/nM. On the procedure: (§1) Binding of P2C4/P1A3 to IL-2Rβ or γc was measured by ELISA analysis, using recombinant IL-2Rβ-Fc and γc-Fc coated on maxisorp plates.
(§2) Biotinylated P2C4/P1A3 was added at various concentrations. Detection of binding was performed using a colorimetric assay using HRP-conjugated streptavidin which converts TMB substrate to a blue solution. The reaction was stopped using hydrochloric acid, and absorbance was measured at 450 nm and 670 nm.
For orientation: In an ELISA, binding on a coated surface is turned into a signal by an enzyme label.

Another test concerns the target T2, recombinant IL-2Rβ-Fc (Homo sapiens (Human), UniProt P14784 27-240).
T2 construct: also called CD122-Fc; not shown: Fc part of the fusion not described
T2 sequence: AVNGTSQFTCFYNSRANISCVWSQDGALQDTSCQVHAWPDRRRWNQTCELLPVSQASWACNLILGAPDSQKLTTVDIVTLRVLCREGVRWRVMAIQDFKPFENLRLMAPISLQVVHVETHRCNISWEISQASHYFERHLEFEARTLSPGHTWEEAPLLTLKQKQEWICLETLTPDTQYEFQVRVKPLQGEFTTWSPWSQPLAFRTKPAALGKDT
Nature of the test: ELISA on coated IL-2Rβ-Fc ('Binding to IL-2RB (Fc)'), biotinylated antibody, streptavidin-HRP, the axis is [Ab]/nM. On the procedure:
as §1, §2

Another test concerns the target T3, monomeric γc (Homo sapiens (Human), UniProt P31785 23-262, limits assumed).
T3 construct: Neither the limits nor the species of the construct are stated; also called CD132; common γ chain
T3 sequence: T1 sequence
Nature of the test: BLI, antibody captured on anti-human Fc biosensor tips, monomeric γc in solution, 1:1 Langmuir fit. On the procedure: (§3) The affinity of binding of P2C4/P1A3 and P2C4/P1A10 to IL-2Rβ and γc was measured by Bio-Layer Interferometry (BLI).
(§4) P2C4/P1A3 or P2C4/P1A10 were captured on anti-human Fc biosensor tips, and 5 different concentrations of monomeric IL-2Rβ or γc were allowed to bind to the captured antibodies. Dissociation of the antigen from the immobilised antibodies was performed for 5 min. Binding affinity was calculated by fitting binding curves using the 1:1 Langmuir model.
Background: In BLI a coated tip is dipped into the sample, and binding shifts an interference pattern.

For another test, the target named is T4, monomeric IL-2Rβ (Homo sapiens (Human), UniProt P14784 27-240, limits assumed).
T4 construct: Neither the limits nor the species of the construct are stated; also called CD122
T4 sequence: T2 sequence
Nature of the test: BLI, antibody captured on anti-human Fc biosensor tips, monomeric IL-2Rβ in solution, 1:1 Langmuir fit. On the procedure: as §3, §4

B1: P2C4/P1A3 Crossmab (bispecific antibody, V domains shown)
VH 1: EVQLVQSGAEVKKPGSSVKVSCKASGYTFTNYYMHWVRQAPGQGLEWMGAIMPSRGGTSYPQKFQGRVTMTGDTSTSTVYMELSSLRSEDTAVYYCARGEYYYDSSGYYYWGQGTLVTVSS
VL 1: QSALTQPASVSGSPGQSIAISCTGTSSDIGHYDFVSWYQQHPGTAPKLIIYDINNRPSGISNRFSGSKSDNMASLTISGLQPEDEADYYCSAYTSSDTLVFGGGTKLTVL
VH 2: QVQLQQWGAGLLKPSETLSLTCAVYGGSFSGYYWSWIRQPPGKGLEWIGEINHSGSTNYNPSLKSRATISVDTSKNQFSLKLSSVTAADTAVYYCATSPGGYSGGYFQHWGQGTLVTVSS
VL 2: not shown
modifications: Biotinylated for the ELISA; site not given.
notes: also called Fab (P2C4): Fab (P1A3) in CrossMab format; copies: 1 + 1 + 1 + 1
As to B1, the EC50 came to 21.2 nM in the test with recombinant γc-Fc and 0.772 nM with recombinant IL-2Rβ-Fc.

B2: P2C4/P1A10 bispecific anti-IL-2Rβ/γc antibody, scFv-KiH-Fc format (bispecific antibody)
chain 1: not shown
chain 2: QVQLQQSGAEVKKPGSSVKVSCKASGGTFSSYAISWVRQAPGQGLEWMGGFDPEDGETIYAQKFQGRVTMTEDTSTDTAYMELSSLRSEDTAVYYCATDLRIPYYYDNPWGQGTLVTVSSGGGGSGGGGSGGGGSEIVLTQSPLSLPVTPGEPASISCRSSQSLLHSNGYNYLNWYLQKPGQSPQLLIYLGSDRASGVPDRFSGSGSGTDFTLKISRVEAEDVGVYYCMQALQTPTTFGGGTKVEIKNSGAGTAAATHTCPPCPAPEAAGGPSVFLFPPKPKDTLMISRTPEVTCVVVDVSHEDPEVKFNWYVDGVEVHNAKTKPREEQYNSTYRVVSVLTVLHQDWLNGKEYKCKVSNKALPAPIEKTISKAKGQPREPQVCTLPPSRDELTKNQVSLSCAVKGFYPSDIAVEWESNGQPENNYKTTPPVLDSDGSFFLVSKLTVDKSRWQQGNVFSCSVMHEALHNHYTQKSLSLSPGK
As for B2, in the test with monomeric γc, the Kd is 61.8 nM, the koff is 0.00961 s⁻¹ and the kon stood at 156000 M⁻¹ s⁻¹. In the test with monomeric IL-2Rβ, this molecule gave a Kd of 28.2 nM, a koff of 0.0044 s⁻¹ and a kon of 156000 M⁻¹ s⁻¹.

B3: P2C4_FW2/P1A3_FW2 (bispecific antibody)
chain 1: not shown
chain 2: EVQLVESGGGLVQPGGSLRLSCAASGGSFSGYYWSWVRQAPGKGLEWVSEINHSGSTNYNPSLKSRFTISRDNSKNTLYLQMNSLRAEDTAVYYCARSPGGYSGGYFQHWGQGTLVTVSSGGGGSGGGGSGGGGSDIQMTQSPSSLSASVGDRVTITCRSSQSLLHSNGYNYLDWYQQKPGKAPKLLIYLGSNRDSGVPSRFSGSGSGTDFTLTISSLQPEDFATYYCMQGTHWPWTFGQGTKVEIKNSGAGTAAATHTCPPCPAPEAAGGPSVFLFPPKPKDTLMISRTPEVTCVVVDVSHEDPEVKFNWYVDGVEVHNAKTKPREEQYNSTYRVVSVLTVLHQDWLNGKEYKCKVSNKALPAPIEKTISKAKGQPREPQVCTLPPSRDELTKNQVSLSCAVKGFYPSDIAVEWESNGQPENNYKTTPPVLDSDGSFFLVSKLTVDKSRWQQGNVFSCSVMHEALHNHYTQKSLSLSPGK
modifications: Biotinylated for the ELISA; site not given.
notes: also called scFv (P2C4_FW2): scFv (P1A3_FW2)-KiH-Fc
B3: the EC50 in the test with recombinant γc-Fc was 48.8 nM; with recombinant IL-2Rβ-Fc, 1.92 nM.

By EC50 is commonly meant the concentration at which the effect is half-maximal. One may read the Kd as the equilibrium constant for the complex coming apart. Read a high Kd as lower affinity. The koff is the first-order rate constant of dissociation. Low values mean slow dissociation, high ones fast dissociation. The term kon denotes the second-order rate constant of association. Read a high kon as faster complex formation.
